Assay [1] has as its target T1, recombinant human (rh) CEACAM5 ECD (Syngene) (human, UniProt P06731 35-685).
T1 sequence: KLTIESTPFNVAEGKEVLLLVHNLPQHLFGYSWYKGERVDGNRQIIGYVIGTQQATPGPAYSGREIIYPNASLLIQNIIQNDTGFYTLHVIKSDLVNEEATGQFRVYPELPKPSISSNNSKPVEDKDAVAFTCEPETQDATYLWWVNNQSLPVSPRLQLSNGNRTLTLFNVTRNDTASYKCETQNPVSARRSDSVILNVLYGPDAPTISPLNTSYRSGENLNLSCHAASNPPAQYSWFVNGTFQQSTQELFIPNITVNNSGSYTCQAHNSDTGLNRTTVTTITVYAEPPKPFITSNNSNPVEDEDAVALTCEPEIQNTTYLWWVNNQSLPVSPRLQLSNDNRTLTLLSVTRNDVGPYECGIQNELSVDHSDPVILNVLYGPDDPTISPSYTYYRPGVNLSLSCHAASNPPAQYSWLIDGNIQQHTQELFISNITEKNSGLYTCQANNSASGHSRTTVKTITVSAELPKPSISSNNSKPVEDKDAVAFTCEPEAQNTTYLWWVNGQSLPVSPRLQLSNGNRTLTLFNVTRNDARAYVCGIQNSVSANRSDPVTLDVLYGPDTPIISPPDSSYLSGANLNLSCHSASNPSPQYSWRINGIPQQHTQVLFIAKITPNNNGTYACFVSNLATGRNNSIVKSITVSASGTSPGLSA
Kind of assay: ELISA, 1 µg/ml coated antigen, antibody titrated; rhCEACAM5 ECD coated. In general terms: ELISA stands for enzyme-linked immunosorbent assay.

The target in assay [2] is T2, recombinant human CEACAM5 A2-B2 domain (Syngene) (human, UniProt P06731 321-498).
T2 construct: also called rhA2-B2 domain
T2 sequence: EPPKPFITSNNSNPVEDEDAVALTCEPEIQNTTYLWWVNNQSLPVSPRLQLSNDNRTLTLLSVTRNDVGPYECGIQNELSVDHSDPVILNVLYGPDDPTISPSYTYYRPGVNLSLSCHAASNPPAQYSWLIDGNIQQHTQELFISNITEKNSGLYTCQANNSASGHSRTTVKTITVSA
Kind of assay: ELISA, 1 µg/ml coated antigen, antibody titrated; rhA2-B2 domain coated.

Assay [3] has as its target T3, human CEACAM5 expressed on human cancer cell lines (MKN-45, NCI-H441, SK-CO-1, SNU-16, LS174T) (human, UniProt P06731 35-685).
T3 construct: Endogenous protein on cells; also called MKN45 cell line expressing human CEACAM5; CEACAM5-positive cell lines
T3 sequence: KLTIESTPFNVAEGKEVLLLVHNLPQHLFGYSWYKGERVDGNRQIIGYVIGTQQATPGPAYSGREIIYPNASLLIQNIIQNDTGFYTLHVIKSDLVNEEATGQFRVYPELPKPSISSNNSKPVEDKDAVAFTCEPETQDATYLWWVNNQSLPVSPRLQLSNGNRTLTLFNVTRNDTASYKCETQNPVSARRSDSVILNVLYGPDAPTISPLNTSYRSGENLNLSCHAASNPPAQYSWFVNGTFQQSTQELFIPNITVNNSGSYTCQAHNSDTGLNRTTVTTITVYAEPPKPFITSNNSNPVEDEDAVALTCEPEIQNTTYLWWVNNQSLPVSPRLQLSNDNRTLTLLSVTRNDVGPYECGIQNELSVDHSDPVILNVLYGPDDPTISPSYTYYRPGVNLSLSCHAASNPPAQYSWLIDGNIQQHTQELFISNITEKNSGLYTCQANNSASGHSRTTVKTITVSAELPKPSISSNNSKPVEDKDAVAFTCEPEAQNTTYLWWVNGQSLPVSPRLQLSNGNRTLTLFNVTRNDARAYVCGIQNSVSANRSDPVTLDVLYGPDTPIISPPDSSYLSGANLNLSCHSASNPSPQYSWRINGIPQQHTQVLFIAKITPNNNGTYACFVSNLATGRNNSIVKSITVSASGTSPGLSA
Kind of assay: cellular binding on MKN45 cells (FIG. 2).

Assay [4] concerns the target T3, human CEACAM5 expressed on human cancer …. Kind of assay: flow cytometry (MFI), titration on MKN-45 cells. How it is done:
The antibody's ability to bind its target protein on cells was determined by titrating the antibody on cells that express the target (e.g. human CEACAM5) and measuring the fluorescence MFI of the cells. Model cells for antibody binding comparison were the MKN45 cell line expressing human CEACAM5 as well as a CHO cell line expressing mfCEACAM5. Titration was done with 10-point ×4 dilution, curve starting concentration 2000 nM in assay buffer (PBS×1 containing 1% BSA).

The target of assay [5] is T4, BSA (bovine serum albumin) (bovine, UniProt P02769 25-607).
T4 construct: Negative control; also called unrelated protein
T4 sequence (P02769 25-607 limits assumed): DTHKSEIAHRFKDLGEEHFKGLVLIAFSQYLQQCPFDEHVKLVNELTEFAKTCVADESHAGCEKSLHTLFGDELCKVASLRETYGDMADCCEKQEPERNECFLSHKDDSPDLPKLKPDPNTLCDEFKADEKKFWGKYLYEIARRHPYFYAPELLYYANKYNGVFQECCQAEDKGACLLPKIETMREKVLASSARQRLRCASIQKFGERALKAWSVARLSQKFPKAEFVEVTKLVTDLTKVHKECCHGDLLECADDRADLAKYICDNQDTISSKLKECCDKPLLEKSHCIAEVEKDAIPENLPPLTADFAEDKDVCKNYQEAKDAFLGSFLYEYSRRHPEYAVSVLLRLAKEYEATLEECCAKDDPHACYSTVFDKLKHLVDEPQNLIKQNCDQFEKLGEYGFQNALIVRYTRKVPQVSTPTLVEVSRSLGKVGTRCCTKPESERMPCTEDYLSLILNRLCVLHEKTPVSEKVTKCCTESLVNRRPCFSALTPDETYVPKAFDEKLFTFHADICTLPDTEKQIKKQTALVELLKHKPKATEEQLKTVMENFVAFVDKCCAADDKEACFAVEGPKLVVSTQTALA
The experiment in a line: ELISA on coated antigen, antibody titrated.

Assay [6] has as its target T5, recombinant human CEACAM5 A3-B3 domain (Syngene) (human, UniProt P06731 499-685).
T5 construct: also called rhA3-B3
T5 sequence: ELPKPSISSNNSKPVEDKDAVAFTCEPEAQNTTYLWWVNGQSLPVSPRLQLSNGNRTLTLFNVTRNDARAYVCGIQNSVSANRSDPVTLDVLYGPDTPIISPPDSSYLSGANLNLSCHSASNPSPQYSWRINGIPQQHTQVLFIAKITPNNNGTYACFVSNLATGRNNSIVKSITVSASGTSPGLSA
Kind of assay: ELISA on coated antigen, antibody titrated.

Assay [7] has as its target T6, recombinant human CEACAM5 N-A1-B1 domain (Syngene) (human, UniProt P06731 35-320).
T6 construct: also called rhN-A1-B1
T6 sequence: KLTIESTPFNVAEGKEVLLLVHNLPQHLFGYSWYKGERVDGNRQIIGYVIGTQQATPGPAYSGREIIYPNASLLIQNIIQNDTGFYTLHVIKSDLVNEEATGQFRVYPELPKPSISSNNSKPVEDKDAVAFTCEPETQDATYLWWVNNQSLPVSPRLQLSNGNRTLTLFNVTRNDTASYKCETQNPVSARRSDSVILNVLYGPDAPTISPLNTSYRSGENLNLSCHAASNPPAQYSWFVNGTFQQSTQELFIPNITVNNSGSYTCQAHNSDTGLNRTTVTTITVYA
Kind of assay: ELISA on coated antigen, antibody titrated.

In assay [8] the target is T2, recombinant human CEACAM5 A2-B2 domain …. Kind of assay: ELISA on coated antigen, antibody titrated.
For assay [9], the target named is T1, recombinant human (rh) CEACAM5 ECD …. The experiment in a line: ELISA on coated antigen, antibody titrated.

B1: mAb1 (final sequence-optimized anti-CEACAM5 antibody so8G4) (antibody, human IgG1, kappa)
heavy: EVQLQESGPGLVKPSQTLSLTCTVSDGSVSRGGYYLTWIRQHPGKGLEWIGYIYYSGSTYFNPSLRSRVTMSVDTSKNQFSLKLSSVTAADTAVYYCARGIAVAPFDYWGQGTLVTVSSASTKGPSVFPLAPSSKSTSGGTAALGCLVKDYFPEPVTVSWNSGALTSGVHTFPAVLQSSGLYSLSSVVTVPSSSLGTQTYICNVNHKPSNTKVDKRVEPKSCDKTHTCPPCPAPPVAGPSVFLFPPKPKDTLMISRTPEVTCVVVDVSHEDPEVKFNWYVDGVEVHNAKTKPREEQYNSTYRVVSVLTVLHQDWLNGKEYKCKVSNKALPSSIEKTISKAKGQPREPQVYTLPPSREEMTKNQVSLTCLVKGFYPSDIAVEWESNGQPENNYKTTPPVLDSDGSFFLYSKLTVDKSRWQQGNVFSCSVMHEALHNHYTQKSLSLSPG
light: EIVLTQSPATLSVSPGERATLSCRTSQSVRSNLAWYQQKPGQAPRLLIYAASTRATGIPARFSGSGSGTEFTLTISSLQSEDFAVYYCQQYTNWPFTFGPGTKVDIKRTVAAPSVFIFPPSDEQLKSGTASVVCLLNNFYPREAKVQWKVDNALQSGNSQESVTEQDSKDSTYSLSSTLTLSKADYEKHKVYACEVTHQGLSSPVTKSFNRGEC
notes: Labelled with pHrodo in the internalization assay
For the molecule B1, the EC50 in assay [1] was 0.153 nM; in assay [2] it was 0.167 nM; in assay [3], 8.3 nM; in assay [4] it was 10.6 nM. In addition, the binding result in [5], in [6] and in assay [7] was “no binding (tested: 4000 pM)” each time. Further, the “EC50 (read off the curve)” value in [8] and in [9] was ~200 pM throughout.

The term EC50 denotes the concentration needed to bring the measured effect to its halfway point. Usually EC50 (read off the curve) stands for the concentration at which the effect is half-maximal.
